# Assay: soluble on expression in E. coli; label from the status in PepcDB or PDB records
row,Sequence,soluble on expression in E. coli
1,WVQPITAQKPSLTLWLDDKMFTGLINTGADVTIIKLEDWPPNWPITDTLTNLRGIGQSNNPKQSSKYLTWRDKENNSGLIKPFVIPNLPVNLWGRDLLSQMKIMMAS,soluble
2,YCEFLNNELRAHASDLLPTAPVPTMMLDRAWDEATLHNITQLIYDVRKDDALFRREISKPGAFDLMRKNYWDRREYSAVTLVGNETCNLAPLAELGFQIEVSQ,not soluble
3,YDKRIHRFRKGWNSLIPTHNKIQYAGNMGMFSFGTGWDYGKRDQWETDLFFGFIPKHDSHRAKMTMTLKQNYMPWSLELGKGFSTEPLACGIYFNTVFGHEFWVHEPSRYPEGYYGFSSKIRTHIFLGQRLTYDIDRERRFFAKSVTLFYELSTCDLLLISRVTNSYLRARDYLSLSFGLKFQWL,not soluble
4,YDPSKDPSSSLARRNLIIGLMEKAGFITHAQAVRAKATPLVLHYTPVTQQGLAPYFTEYIRQTIKSSSMLEGVNVYRDGL,not soluble
5,YFNLQFGANLDVYLTKKWSVGADLLLSFKTYQYKNTLLGYSELTMKENQLWLELPIVLKYTMGQKKLRYYLQAGGAVSMILSSNSNIVRKDAATQSNQAIGPDINTRDLRNMFNYSLVGGGGIRYKAGYGYLVLDVKYMYGLNNISDMDNKYSNDELIYKYGYIDNDFTLNSLMFSIGYYKSFYKPKKLPTYEK,not soluble
6,YIDVKRMMYTLIVSFVFSRVVDSVLDGAYAAKGILIVSNHSEEIGQSLMASLERGVTYLNGEGAYSQVEKRVLYTVVSPREIMEVKRIANEIDEKAFVSIINVHEAIGEGFTYAKPSKQRRFKLKQ,not soluble
7,YIKMISNAKRSILIQTPYFIPDASLLDALRIACLSGIDVNIMIPNKPDHAFVYWATLSYIGDLLKAGATVYIYDNGFIHAKTIVVDDEIASVGTANIDVRSFRLNFEVNAFIYDITIAKKLVSTFKEDLLVSRKFTYEEYLQRPLWIR,not soluble
8,YIRKRVPLLCLGKRWFVFDKSLMKKTISYGSTSAMQQVCLQIGKTIIQAVVNTQGVSVMAAFTAVNRVDDFAYIPQQNIGHAMTTFIAQNKGAGKRERIRRGLQ,not soluble
9,YNPLYSIENATSRRDTVLQNMVAAGKISQKQANEAKKVGMGNRISDTYVAKTDDYQYPSYFDAVISEASSVYGISEKDIVNNGY,not soluble
10,YSSRRFEKKKIHFPSRRRRFVDYLINAQRSEKLELNSQQQLGNRHSGSSELVKSESRKKAKSSNQKEKVKPEKRGRATATTGAGPTIDQSLKGPTGTTMASERGMTMTQTIQKEKSIKKKKSEKDERKRAKEVGNEEAAADNQTVTQGNDTTTTQGPSSMFPADLSKKHRLGLQKVKERAVEVPEKKKTKNNE,not soluble
11,YVSTDGDDIYVGKNNKQNDYLTNKKAKKTHTWLHTKDIPGSHVVIFNDAPSDTTIKEAAMLAGYFSKAGNSGQIPVDYTLIKNVHK,not soluble
12,YVTNDLANSMKDRGTMLADSLRVDFAIINDPSKIPVSGTGPYTYTFYVKNIGKDSIAFSSNSIQVFIDGNIIPPANLTFTDVNGNSISSLDPGEVGAIQVTLGNALDPGYHRIQVVLENGKERVLIFKI,not soluble
13,YVWDTKMNVGLRVGAAAEFMIGSRGFYLAPGLNYTMKGSKTEWDIPEMVPGTYITMVSTRLHYLQLPINAGMRFDLMNDMAVSIEAGPFLAYGIYGTYRQKLEGWKPNNYSTEFFGPTLGGPTNIRWDIGANIIAAFHYKRYYIQIGYEHGFVDIVSGGGSDIPRLNDNRQSSSTTALREKGNNEYAYNRDFFVGIGYRF,not soluble

# From the DeepSol protein solubility set
